This note sets out measurements from paper PMC6365055, “High resolution cryo-EM structure of the helical RNA-bound Hantaan virus nucleocapsid reveals its assembly mechanisms” (eLife, 2019).

The data set “negative stain EM” concerns the molecule itself. As to the kind of experiment: negative stain EM.
The data set “cryo-EM structure” concerns the molecule itself. In words: cryo-EM structure.

B1: NP_(74-429) construct obtained by trypsin limited proteolysis of HTNV-NC (domain or fragment)
chain: NLGKEQDPTGVEPGDHLKERSMLSYGNVLDLNHLDIDEPTGQTADWLSIIVYLTSFVVPILLKALYMLTTRGRQTTKDNKGTRIRFKDDSSFEDVNGIRKPKHLYVSLPNAQSSMKAEEITPGRYRTAVCGLYPAQIKARQMISPVMSVIGFLALAKDWSDRIEQWLIEPCKLLPDTAAVSLLGGPATNRDYLRQRQVALGNMETKESKAIRQHAEAAGCSMIEDIESPSSIWVFAGAPDRCPPTCLFIAGIAELGAFFSILQDMRNTIMASKTVGTSEEKLRKKSSFYQSYLRRTQSMGIQLGQRIIVLFMVAWGKEAVDNFHLGDDMDPELRTLAQSLIDVKVKEISNQEPLKL
notes: also called truncated construct NP_(74-429)
As to B1, in the data set “negative stain EM”, the binding result is listed as “binds”.

B2: Hantaan virus nucleoprotein, recombinant full-length (natural protein)
chain: MATMEELQREINAHEGQLVIARQKVRDAEKQYEKDPDELNKRTLTDREGVAVSIQAKIDELKRQLADRIATGKNLGKEQDPTGVEPGDHLKERSMLSYGNVLDLNHLDIDEPTGQTADWLSIIVYLTSFVVPILLKALYMLTTRGRQTTKDNKGTRIRFKDDSSFEDVNGIRKPKHLYVSLPNAQSSMKAEEITPGRYRTAVCGLYPAQIKARQMISPVMSVIGFLALAKDWSDRIEQWLIEPCKLLPDTAAVSLLGGPATNRDYLRQRQVALGNMETKESKAIRQHAEAAGCSMIEDIESPSSIWVFAGAPDRCPPTCLFIAGIAELGAFFSILQDMRNTIMASKTVGTSEEKLRKKSSFYQSYLRRTQSMGIQLGQRIIVLFMVAWGKEAVDNFHLGDDMDPELRTLAQSLIDVKVKEISNQEPLKL
notes: also called HTNV-NP; NP
As to B2, in the data set “cryo-EM structure”, the binding result is listed as “binds”.
